Measured values taken from PMC12809509.

Molecular target: Prebiotinylated FcγRI (Biotinylated Human CD64 Protein, His, Avitag) (human) (UniProt P12314)
Experiment: SPR; Biacore T200; biotinylated FcγRI immobilised on a streptavidin SA chip (F-chip); single-cycle kinetics, OPD injected at 90, 30, 10 nM, 120 s contact, 900 s dissociation; running buffer HBS-EP 1x pH 7.4; double-referenced; 1:1 Langmuir fit; mean ± SD, n = 3

UniProt P12314, sequence (P12314 16-292): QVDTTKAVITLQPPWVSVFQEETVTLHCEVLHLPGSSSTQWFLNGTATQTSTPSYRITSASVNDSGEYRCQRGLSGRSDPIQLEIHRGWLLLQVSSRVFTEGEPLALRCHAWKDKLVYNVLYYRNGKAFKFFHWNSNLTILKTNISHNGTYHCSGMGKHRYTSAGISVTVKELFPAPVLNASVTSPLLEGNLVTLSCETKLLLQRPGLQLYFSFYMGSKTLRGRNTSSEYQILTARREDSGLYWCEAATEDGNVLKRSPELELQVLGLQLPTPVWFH

Kd: 7.33 nM
koff: 0.00093 s⁻¹
kon: 127000 M⁻¹ s⁻¹
Substance: nivolumab (antibody)
